T1: Anaplastic Lymphoma kinase Artificial Substrate peptide-B (ALAStide-B)
T1 chain: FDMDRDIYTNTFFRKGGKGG

T2: YFF peptide
T2 chain: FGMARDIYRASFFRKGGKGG

T3: Anaplastic Lymphoma kinase Artificial Substrate peptide-A (ALAStide-A)
T3 chain: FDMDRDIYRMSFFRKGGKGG


What was measured:
[1] = biological target: T1, Anaplastic Lymphoma kinase Artificial …
YFF peptide = biological target: T2, YFF peptide
[2] = biological target: T3, Anaplastic Lymphoma kinase Artificial …

Row | Protein | phosphorylation by ALK kinase in vitro, ELISA [1] | phosphorylation by ALK kinase in vitro, ELISA (YFF peptide) | phosphorylation by ALK kinase in vitro, ELISA [2] | phosphorylation by kinase in vitro, ELISA [1] | phosphorylation by kinase in vitro, ELISA (YFF peptide) | phosphorylation by kinase in vitro, ELISA [2]
1 | Anaplastic lymphoma kinase (ALK) (protein) VYRRKHQELQAMQMELQSPEYKLSKLRTSTIMTDYNPNYCFAGKTSSISDLKEVPRKNITLIRGLGHGAFGEVYEGQVSGMPNDPSPLQVAVKTLPEVCSEQDELDFLMEALIISKFNHQNIVRCIGVSLQSLPRFILLELMAGGDLKSFLRETRPRPSQPSSLAMLDLLHVARDIACGCQYLEENHFIHRDIAARNCLLTCPGPGRVAKIGDFGMARDIYRASYYRKGGCAMLPVKWMPPEAFMEGIFTSKTDTWSFGVLLWEIFSLGYMPYPSKSNQEVLEFVTSGGRMDPPKNCPGPVYRIMTQCWQHQPEDRPNFAIILERIEYCTQDPDVINTALPIEYGPLVEEEEKVPVRPKDPEGVPPLLVSQQAKREEERSPAAPPPLPTTSSGKAAKKPTAAEISVRVPRGPAVEGGHVNMAFSQSNPPSELHKVHGSRNKPTSLWNPTYGSWFTEKPTKKNNPIAKKEPHDRGNLGLEGSCTVPPNVATGRLPGASLLLEPSSLTANMKEVPLFRLRHFPCGNVNYGYQQQGLPLEAATAPGAGHYEDTILKSKNSMNQPGP | ALAStide-B has comparable phosphorylation level with YFF peptide | YFF peptide is used as a reference to compare the phosphorylation activity of ALAStide-A and ALAStide-B | ALAStide-A has higher phosphorylation activity than YFF and ALAStide-B |  |  | 
2 | Lyn (protein) MGCIKSKGKDSLSDDGVDLKTQPVRNTERTIYVRDPTSNKQQRPVPESQLLPGQRFQTKDPEEQGDIVVALYPYDGIHPDDLSFKKGEKMKVLEEHGEWWKAKSLLTKKEGFIPSNYVAKLNTLETEEWFFKDITRKDAERQLLAPGNSAGAFLIRESETLKGSFSLSVRDFDPVHGDVIKHYKIRSLDNGGYYISPRITFPCISDMIKHYQKQADGLCRRLEKACISPKPQKPWDKDAWEIPRESIKLVKRLGAGQFGEVWMGYYNNSTKVAVKTLKPGTMSVQAFLEEANLMKTLQHDKLVRLYAVVTREEPIYIITEYMAKGSLLDFLKSDEGGKVLLPKLIDFSAQIAEGMAYIERKNYIHRDLRAANVLVSESLMCKIADFGLARVIEDNEYTAREGAKFPIKWTAPEAINFGCFTIKSDVWSFGILLYEIVTYGKIPYPGRTNADVMTALSQGYRMPRVENCPDELYDIMKMCWKEKAEERPTFDYLQSVLDDFYTATEGQYQQQP |  |  |  | The ALK-specific biosensors are not phosphorylated by other representative cellular kinases | shows the lack of affinity of these the two ALK-specific biosensors and YFF peptide by Lyn, Abl, and Csk | The ALK-specific biosensors are not phosphorylated by other representative cellular kinases
3 | Csk (protein) MSAIQAAWPSGTECIAKYNFHGTAEQDLPFCKGDVLTIVAVTKDPNWYKAKNKVGREGIIPANYVQKREGVKAGTKLSLMPWFHGKITREQAERLLYPPETGLFLVRESTNYPGDYTLCVSCDGKVEHYRIMYHASKLSIDEEVYFENLMQLVEHYTSDADGLCTRLIKPKVMEGTVAAQDEFYRSGWALNMKELKLLQTIGKGEFGDVMLGDYRGNKVAVKCIKNDATAQAFLAEASVMTQLRHSNLVQLLGVIVEEKGGLYIVTEYMAKGSLVDYLRSRGRSVLGGDCLLKFSLDVCEAMEYLEGNNFVHRDLAARNVLVSEDNVAKVSDFGLTKEASSTQDTGKLPVKWTAPEALREKKFSTKSDVWSFGILLWEIYSFGRVPYPRIPLKDVVPRVEKGYKMDAPDGCPPAVYEVMKNCWHLDAAMRPSFLQLREQLEHIKTHELHL |  |  |  | The ALK-specific biosensors are not phosphorylated by other representative cellular kinases | shows the lack of affinity of these the two ALK-specific biosensors and YFF peptide by Lyn, Abl, and Csk | The ALK-specific biosensors are not phosphorylated by other representative cellular kinases

— patent US20170183710
